Test: soluble on expression in E. coli; label from the status in PepcDB or PDB records

Sequence	soluble on expression in E. coli
HHHHHHMPIQVLPPQLANQIAAGEVVERPASVVKELVENSLDAGATRIDIDIERGGAKLIRIRDNGCGIKKDELALALARHATSKIASLDDLEAIISLGFRGEALASISSVSRLTLTSRTAEQQEAWQAYAEGRDMNVTVKPAAHPVGTTLEVLDLFYNTPARRKFLRTEKTEFNHIDEIIRRIALARFDVTINLSHNGKIVRQYRAVPEGGQKERRLGAICGTAFLEQALAIEWQHGDLTLRGWVADPNHTTPALAEIQYCYVNGRMMRDRLINHAIRQACEDKLGADQQPAFVLYLEIDPHQVDVNVHPAKHEVRFHQSRLVHDFIYQGVLSVLQQQLETPLPLDDEPQPAPR	soluble
MGSDKIHHHHHHMCTRFVYNGKETIVGFNFDIDLSEWEHTVIAEKDRFFIGIKMSDNKYHSFHGINRNGNVGTLLYVHGNDNAQFCSNESCYTIADLTENFIKGNLSFDDSLEIVKKKKITYAPDTTMQAMFSDRNGRVLIIEPGIGYRLEKEKYSLITNYSILKPELTNPYVLSGDNRYEKAKDLLQGYGENFSISNAFDVLRSVRQEGLWATRVSFIYSVAKNKVYYVLNNDFKNIAEYQF	not soluble
MSVKPVDLNKLRSTHENLYETVVAISKKAREIQEEERAELEERLLPYKEMIRNPASESESEKVFPEQIAISVAFECREKPTQQALAQYLDHQYDYVLEKSPETKVAQNEDEDESDRD	not soluble
MAHHHHHHMRKIYIAGPAVFNPDMGASYYNKVRELLKKENVMPLIPTDNEATGALDIRQKNIQMIKDCDAVIADLSPFRGHEPDCGTAFEVGYAAALNKMVLTFTSDRRNMREKYGSEVDKDNLRVEGFGLPFNLMLYDGVEVFDSFESAFKYFLANFPSK	soluble
MSLEKLAASTEPQGPRPVLGRESVQVPDDQDFRSFRSECEAEVGWNLTYSRAGVSVWVQAVEMDRTLHKIKCRMECCDVPAETLYDVLHDIEYRKKWDSNVIETFDIARLTVNADVGYYSWRCPKPLKNRDVITLRSWLPMGADYIIMNYSVKHPKYPPRKDLVRAVSIQTGYLIQSTGPKSCVITYLAQVDPKGSLPKWVVNKSSQFLAPKAMKKMYKACLKYPEWKEGHHHHHH	not soluble
SGLYRIRVSTGASLYAGSNNQVQLWLVGQHGEAALGKRLWPARGKETELKVEVPEYLGPLLFVKLRKRHLLKDDAWFCNWISVQGPGAGDEVRFPCYRWVEGNGVLSLPEGTGRTVGEDPQGLFQKHREEELEERRKLYRWGNWKDGLILNMAGAKLYDLPVDERFLEDKRVDFEVSLAKGLADLAIKDSLNVLTCWKDLDDFNRIFWCGQSKLAERVRDSWKEDALFGYQFLNGANPVVLRRSAHLPARLVFPPGMEELQAQLEKELEGGTLFEADFSLLDGIKANVILCSQQHLAAPLVMLKLQPDGKLLPMVIQLQLPRTGSPPPPLFLPTDPPMAWLLAKCWVRSSDFQLHELQSHLLRGHLMAEVIVVATMRCLPSIHPIFKLIIPHLRYTLEINVRARTGLVSDMGIFDQIMSTGGGGHVQLLKQAGAFLTYSSFCPPDDLADRGLLGVKSSFYAQDALRLWEIIYRYVEGIVSLHYKTDVAVKDDPELQTWCREITEIGLQGAQDRGFPVSLQARDQVCHFVTMCIFTCTGQHASVHLGQLDWYSWVPNAPCTMRLPPPTTKDATLETVMATLPNFHQASLQMSITWQLGRRQPVMVAVGQHEEEYFSGPEPKAVLKKFREELAALDKEIEIRNAKLDMPYEYLRPSVVENSVAI	soluble
MSEWRGFNRKGNTMKIRPGRHNAPDFPHGAAVTIGNFDGVHLGHKHILQKLRLEADARGLPVVAVVFEPQPKEFFALRTGKTPPCRISPLRTKLELLEGTGCVDAAWVLRFDRNFSEISAQAFIDRLLRQTLNTRYLLVGDDFRFGAGREGCFELLAQQPDMQTERTPSVIVEDIRTSSTAVRQALSDGNLAYAKKLLGHDYVLGGRVVHGRKLGRTLNAPTANIRLPGHRYALGGVFVVEADGAFGTRRGVASFGFNPTVDGGCSQKLEVHLFDFQGDLYGQRLNVRFLHKLRDEEKFDGMEELKRRIEADMEAAKCW	not soluble
MGSDKIHHHHHHMENIALLGIDLGKHIFHVHAQDKAGHQLWRRKLNRKQLVELVANTPACRIVMESCSGAHHFARRFLQFGHDVKLIAPQYVKPFVKGNKNDFVDAEAICEAASRPAMRFAAVRNEQQQTISALHRTRDMLIRSRGSAHNQIHAYLVEFGVAIGTGPAAIRKLPAVLQAMTYRRALSPCWSNFGITFFISTSRSPLSSAN	not soluble
MGSDKIHHHHHHKGHRVTGSDANVYPPMSTQLEEQGIELIQGFDPSQLGDAGSYPDIVVIGNAMSRGNPCVEAVLNLGIPYTSGPQFLVDHILPERWVLAVSGTHGKTSTSSMLAWILEDCGYQPGFLIGGVPQNFGVSARLGESAFFVVEADEYDSAFFDKRSKFVHYHPRTLVINNLEFDHADIFADLAAIQKQFHHQIRTVPGQGKVIWPADSHAVKQTIDMGCWSEQETYHSSEVTKGWHAKALSDDCHEFEVFFDGQSQGVLDWALIGQHNIENAVMAIAAARHVGVAPSAAIDALARFVPPKRRLELLDTVNGVSVYDDFAHHPTAIATTIKGMRAKVGQTKITIVLEPRSNTMKSGVHKDTLAHSMLQADEAFLYQADTIDWNMKEAMEAAVIPVTVLHQIDDVVAKVAASAKPGDTIVVMSNGGFGGLHKKLLAALAVSPQLVEQAH	not soluble
MGSDKIHHHHHHMYVAVKGGEQAILNTHKLISETRRGDPEIAELTLPQISEQLGLAVDRVMAEGSVYDRQLAALALKQAQGDAMEAIFLLRAYRTTLPRIAVSEPIDTSRMAIRRRISATFKDLPGGQVLGPTYDYTHRLLDFALTAEGLERVRAVPAAEPLDQSVPRVVDLLDDEGVIQEENDDDQEEVFDLTRQPKSFPAGRDQRLQNLARADEGFLLGLAYSTTRGYGFNHPFVGELRLGEVTVEIVPEELGFPIVVAEVTVTECQMINSFRGSAEQPPQFTRGYGLTFGHNEGKAMSMSLVDRAMRARELGEDVRYPAQDEEFVLSHTDNVEANGLVTHYKLPHYVDFQAELQLVRQLRAEYEAARAAAQTREAAE	not soluble
MGSDKIHHHHHHMTKPFYWNELNTYDFASLSPDSTIAVLPIASTEQHGPHLPIATDVAIANGMLAELKRQRPDDLNFLVLPTQEIGKANEHVYGPGTLSLSADLLIAAWTAIGAKVAEAGLRKLVIVNSHGGNVDIMSIVGRELRVRHKMAVVSTQWSRFGNPEGMISEHENRYGIHGGEVETSLMLHFRPELVRMDKAENFVSKAEWMKERSDFLQPLPPHSLAWIAHDLNPAGVVGDASKGTAEKGEAICRHQVSGFIQLLRDVRDYPLSALYSPE	not soluble
SDIEAYFERIGYKNSVNKLDLATLTEVLQHQMRAVPFENLSMHCGEAMCLGLEATFDHIVRKKRGGWCLQVNHLLYWALTKMGFETTMLGGYVYITPVNKYSSEMVHLLVQVTISDRNYIVDSAYGSSYQMWEPLELTSGKDQPQVPAIFRLTEENGTWYLDQIRREQDVPNQEFVNSDLLEKSKYRKIYSFTLEPRTIEDFEYVNTYLQTSPASVFVSTSFCSLQTSEGVCCLIGSTLTSRRFSYKDNVDLVEFKSLTEEEIEDVLKTTFGISLEKKFVPKHGELVFTI	soluble
MFVDREEELKALNEKLDSNNFEFIVIYGRRRIGKTKLALKSVENREHIYYLAVEGDNLKHFKRYASKVEPTIEYAKEDWEAYFNFLKDKIIIIDEFPNLIKENPNVLSLFQRIVDIHLKNTKTKLIILGSSISMMGEKVLSYKSPLYGRKTGVLKIKPLKFKHLKEFFPKAIWEELVEIYGFADGIPYYLEKVKLPFWDYLDKEIKRVDSFLRYEVDFLMKYEFEEPTTYKKILEAIAFGNHTLGEIKNYLGFKHSDLTPYLKNLIEVEFIERQTPITESVKSKKGRYYIKDNFIAFYFRYIFPNLSAIEEGIFDIEEIKADYNQYLGFVFEKVAKEFLIELNKMNKLPFKFLKIGRWWHRGEEIDLIALNDNDKKALFVEVKWKDLKDRDVKKIYRDLYRKSKLVGLDDYEKYYAIVGKKIESKENGDCLLFDLEDFSLEHHHHHH	soluble
MSLSETATQAPQPANVLLEVNDLRVTFATPDGDVTAVNDLNFTLRAGETLGIVGESGSGKSQTAFALMGLLATNGRIGGSATFNGREILNLPERELNTLRAEQISMIFQDPMTSLNPYMRVGEQLMEVLMLHKGMSKAEAFEESVRMLDAVKMPEARKRMKMYPHEFSGGMRQRVMIAMALLCRPKLLIADEPTTALDVTVQAQIMTLLNELKREFNTAIIMITHDLGVVAGICDKVLVMYAGRTMEYGKARDVFYQPVHPYSIGLLNAVPRLDSEGAEMLTIPGNPPNLLRLPKGCPFQPRCPHAMEICNNAPPLEAFSPGRLRACFKPVEELL	not soluble
SLSAPIRVLVVDDHVLSRRELEVALAAEADIEVVGSAVNSPAAVTLGSESRPDVALVDVEEPHEDGIRAVSAIKRAVSPVRILILATSDDEAHLFGAVRAGAVGYLLKPRPMDELTAAVRSVHNGVSIIGPGVASQVMKEFAAMARSEKSPAMPHLTVRELDVLKLMVGGCANQGISRRLLISENTVKNHIRNILEKLQFSAWEG	soluble
MDVQIFPHRLLGADTTEKLLNRLEDISGVKRMVIHGQRLPPEDHPDRRIISVKGHEFELQVKTGRVLLEIEDEDTIADIKRVCEDLLPFGYDVTPGKYIRTQKTVTDEIKYGEDLDKVPEELIGLTDQNARLSERATIIKRKKEHLEHHHHHH	soluble
MSLKNFINFHILISHSPSCLNRDDMNMQKSAVFGGERRVRVSSQSLKRAIRKSDYYRQHLGEASVRTKKLDELIAIINDRLAGRYDTDLLKKTVGLLAGKELSVEVATEGDAVAPWAIEEVAWFCEQVKRMVAQGQDEKALGKLLKNETAAMRQALASGVDIALSGRMATSGLMSELGKVDGALAVAHVLTTHSVDADIDWFTAVDDLQELGSGHLDTQEFSSGVFYRYASLNVKQLQENLGNAPREKALEIGAHLLHMLATIVPSAKQQSFAAHNLADLALVSFSDIPVSLANAFEKPVRSVNGSGFKEPSIAELHNYWQQIHTGYGLSERCGEFILGQSSVPEGITRKSTIEELKTWVMNNGEGEGHHHHHH	soluble
MLLVSVISCLLISVLAKDAVTPRVGSQCTKNQVVRKLTVYEDGALEAECGPVPCGEVGKRCIDDQTSCRAETDVFSGMRWAPNGESILLRCCTMHAKNKIYVGTDVVAAGSFYEGGEVAEKDLYGDKGGAEYDFVANARTEQGGVRVWVYRMICAKGEKPVDFDPITTTSAPRVIKTTPAPTTTPTVEEEAEEAEQLEEDQPNDNEAEIVESNDEEEVVEEETEEEEEVTTTPAPKPFNPLRYRPPHFPRQSTGIRRA	not soluble
MITLHTNFGDIKIQLNFEKAPVTSANFEQYCREGFYDNTLFHRVIDGFMIQGGGMTSGLREKETRDPIRNEANNGLSNKVGTIAMARTMDPHSASSQFFINVNNNTFLDFRSESRDGWGYCVFGEVVEGMDIVNKIKGVSTGSYGMHQDVPLEEVVITGTTIEA	not soluble
MGSDKIHHHHHHMAKHPLVMALAKVIIAAAWADGELSLDEVNDLKRLLAELGQTGGQFALTADDWAELEIYLYSPVEAAERARLIADLRDLIITPGQQQLVLQAIERLLIADRVLTPVEREVAQEIQRALTQDSQSLLFQIGRAFRLALGIRAGGPNREDLLPEFMRNRIYYALQIRLGQHIDEFGLDRDELHVLTLAGGLLARVAYVDKQVTPAEHDRIVAILKEWWQLDDTQAALVAEVALDESAASLDFFRLTKAFADATTVERRQRFLDALFAVALADGELSGAESAEISRITAAINLPHDSFVAARLRLPRQPGKRL	not soluble

Reference: the DeepSol protein solubility set
